# Data reported in US20220242962A1 (APTEVO RESEARCH AND DEVELOPMENT, published 2022).
# T1: Full-length Human OX40 (human, UniProt P43489 29-277)
# T1 sequence: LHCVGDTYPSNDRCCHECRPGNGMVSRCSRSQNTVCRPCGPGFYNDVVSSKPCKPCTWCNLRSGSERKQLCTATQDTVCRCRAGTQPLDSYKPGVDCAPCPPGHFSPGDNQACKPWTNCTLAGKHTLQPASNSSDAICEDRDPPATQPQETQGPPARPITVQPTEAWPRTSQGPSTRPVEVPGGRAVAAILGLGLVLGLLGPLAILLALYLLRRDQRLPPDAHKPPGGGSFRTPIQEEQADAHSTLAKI
# T2: Full-length Cyno 4-1BB (cynomolgus monkey, UniProt Q07011 24-255 (human entry))
# T2 construct: on Jurkat or CHO cells; also called FOB006; cynomolgus 4-1BB
# T2 chain: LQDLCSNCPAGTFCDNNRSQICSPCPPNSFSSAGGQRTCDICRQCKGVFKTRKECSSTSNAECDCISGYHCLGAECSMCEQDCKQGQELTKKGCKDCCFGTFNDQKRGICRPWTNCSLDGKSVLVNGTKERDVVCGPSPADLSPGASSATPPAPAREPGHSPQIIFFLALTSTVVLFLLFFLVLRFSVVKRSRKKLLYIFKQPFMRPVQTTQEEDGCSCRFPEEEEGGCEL
# T3: Human OX40 ECD-AFH (human)
# T3 construct: ECD'; entry includes the C-terminal tags; also called OXF003; Human OX40 ECD-avi-flag-his
# T3 chain: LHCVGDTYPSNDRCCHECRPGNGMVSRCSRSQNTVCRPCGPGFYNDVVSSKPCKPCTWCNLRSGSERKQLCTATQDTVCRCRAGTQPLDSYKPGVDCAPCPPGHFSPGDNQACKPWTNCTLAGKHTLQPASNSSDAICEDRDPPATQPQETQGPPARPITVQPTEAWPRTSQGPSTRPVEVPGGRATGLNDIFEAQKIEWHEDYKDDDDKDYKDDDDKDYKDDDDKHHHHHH
# T4: Full-length Cyno OX40 (cynomolgus monkey, UniProt P43489 29-277 (human entry))
# T4 construct: on CHO-K1SV cells; also called OXF004; cynomolgus OX40
# T4 chain: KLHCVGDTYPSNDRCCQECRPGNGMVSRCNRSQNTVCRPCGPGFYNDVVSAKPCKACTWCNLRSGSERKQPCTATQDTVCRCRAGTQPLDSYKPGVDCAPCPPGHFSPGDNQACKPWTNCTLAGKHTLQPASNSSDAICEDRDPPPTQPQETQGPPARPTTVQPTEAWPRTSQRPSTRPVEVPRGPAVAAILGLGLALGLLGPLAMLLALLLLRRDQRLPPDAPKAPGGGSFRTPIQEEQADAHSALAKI
# How the values were obtained:
# [1] = biological target: T5, Recombinant FcRn/b2M protein (human, UniProt P55899 24-297; P61769 21-119, limits assumed); experiment: SPR pH 6.0, FcRn/b2M immobilized, two-state reaction model
# T5 construct: also called hFcRn/b2M; neonatal Fc receptor
# T5 sequence (P55899 24-297 limits assumed, chain 1 of 2): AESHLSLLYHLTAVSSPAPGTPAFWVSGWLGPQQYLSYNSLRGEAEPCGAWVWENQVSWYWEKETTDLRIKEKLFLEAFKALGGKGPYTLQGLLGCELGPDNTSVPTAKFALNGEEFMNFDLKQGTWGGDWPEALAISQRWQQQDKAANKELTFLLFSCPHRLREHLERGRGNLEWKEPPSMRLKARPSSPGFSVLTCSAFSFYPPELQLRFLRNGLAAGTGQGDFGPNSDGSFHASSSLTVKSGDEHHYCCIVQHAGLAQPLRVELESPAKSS
# T5 sequence (P61769 21-119 limits assumed, chain 2 of 2): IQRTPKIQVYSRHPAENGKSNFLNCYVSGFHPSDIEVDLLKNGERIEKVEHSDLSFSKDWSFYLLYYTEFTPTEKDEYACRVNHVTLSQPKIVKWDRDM
# Protocol: Recombinant FcRn/b2M protein was generated via transient transfection of HEK-293 cells with a bi-cistronic vector containing the genes for both FcRn and […]. The complex was purified using IMAC chromatography and subsequently buffer exchanged into IMAC elution buffer after verifying purity of the IMAC eluate by analytical SEC. hFcRn/b2M at 10 μg/ml in 10 mM sodium acetate (pH 4.5) was immobilized on a CM5 chip by direct amine coupling chemistry to a level of ˜600 RU. A reference flow cell was left blank.
# Different concentrations of the Fc variant protein (5-80 nM by 2-fold dilutions in pH 6.0 running buffer) including running buffer as blank were injected in randomized order at 30 μL/min for 180 seconds followed by a 120 second dissociation period.
# Sensorgrams obtained from kinetic SPR measurements were analyzed by the double subtraction method. The signal from the reference flow cell was subtracted from the analyte binding response obtained from flow cell with immobilized ligands. Buffer reference was subtracted from analyte binding responses, and the final double-referenced data were analyzed with Biacore T200 Evaluation software (2.0, GE), globally fitting data to derive kinetic parameters. All sensorgrams were fitted using two-state reaction model, as described in Weirong Wang et al, DrugMetab Dispos.: 39(9): 1469-77 (2011).
# Full-length Human 4-1BB [2] = biological target: T6, Full-length Human 4-1BB (human, UniProt Q07011 24-255); experiment: cell-based or functional assay
# Full-length Human OX40 [3] = biological target: T1, Full-length Human OX40; experiment: cell-based or functional assay
# Full-length Cyno 4-1BB = biological target: T2, Full-length Cyno 4-1BB; experiment: flow cytometry on Jurkat cells transfected with cynomolgus 4-1BB, goat anti-human Fc secondary antibody, MFI (Mean)
# Protocol: (§1) FIGS. 12A-12D show the binding of anti-4-1BB x anti-OX40 constructs, with additional humanization in 4-1BB and altered orientations of binding domains, human (12A) or cynomolgus (12C) 4-1BB-expressing Jurkat cells or human (12B) or cynomolgus (12D) OX40-expressing CHOK1SV cells. Serial dilutions of ADAPTIR™ constructs were incubated with transfected cells and subsequently labelled with a fluorescently-conjugated goat-a-human Fc secondary antibody. […] (See Example 19.)
# (§2) Binding studies were performed using the flow cytometry-based staining procedures described above.
# Human OX40 ECD-AFH = biological target: T3, Human OX40 ECD-AFH; experiment: SPR, construct captured, monomeric ECD as analyte
# Protocol: (§3) Mouse anti-human IgG (GE, BR-1008-39) at 25 μg/ml in 10 mM sodium acetate pH 5.0 was immobilized at a density of ˜10,000 response units (RU) onto each flow cell of a CM5 research-grade sensor chip (GE) by standard amine coupling chemistry. Each binding protein at approximately 100 nM in HBS-EP+ with 0.2% BSA buffer was captured in a flow cell with the immobilized anti-human IgG at a flow rate of 10 μL/min for 20 seconds, leaving one flow cell surface unmodified as the reference. Using a single-cycle kinetics mode, five different concentrations of ECD were sequentially injected through each flow cell at 30 μL/min for 300 seconds followed by a 600 second dissociation period. Regeneration was achieved by injection of 3 M MgCl₂ at a flow rate of 30 μL/min for 30 seconds followed by HBS-EP+ with 0.2% BSA buffer stabilization for 1 min.
# (§4) Sensorgrams obtained from kinetic SPR measurements were analyzed by the double subtraction method. The signal from the reference flow cell was subtracted from the analyte binding response obtained from flow cells with immobilized or captured ligands. Buffer reference responses were then averaged from multiple injections. The averaged buffer reference responses were then subtracted from analyte binding responses, and the final double-referenced data were analyzed with Biacore T200 Evaluation software (2.0, GE), globally fitting data to derive kinetic parameters. All sensorgrams were fitted using a simple one-to-one binding model.
# (§5) Protein was produced by transient expression, purified by ProA chromatography and prep SEC.
# Human 4-1BB ECD-AFH = biological target: T7, Human 4-1BB ECD-AFH (human); experiment: SPR, construct captured, monomeric ECD as analyte
# T7 construct: entry includes the tags; also called FOB003; HUMAN CD137 ECD-AVI-FLAG-HIS
# T7 sequence (chain, as listed by the source limits assumed): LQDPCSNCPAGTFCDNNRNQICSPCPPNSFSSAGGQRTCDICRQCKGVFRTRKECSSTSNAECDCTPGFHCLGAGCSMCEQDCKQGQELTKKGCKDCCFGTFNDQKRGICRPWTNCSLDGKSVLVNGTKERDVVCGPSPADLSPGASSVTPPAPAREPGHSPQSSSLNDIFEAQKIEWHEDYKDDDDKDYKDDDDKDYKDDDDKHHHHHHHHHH
# Protocol: as §3, §4, §5
# Full-length Human OX40 [4] = biological target: T1, Full-length Human OX40; experiment: flow cytometry, CHO cells expressing human OX40
# Protocol: as §1, §2
# Full-length Human 4-1BB [5] = biological target: T6, Full-length Human 4-1BB; experiment: flow cytometry, Jurkat cells expressing human 4-1BB
# Protocol: as §1, §2
# Full-length Cyno OX40 = biological target: T4, Full-length Cyno OX40; experiment: flow cytometry on CHOK1SV cells transfected with cynomolgus OX40, goat anti-human Fc secondary antibody, MFI (Mean)
# Protocol: as §1, §2
Binder,Kd [1],4-1BB Reporter Assay EC50 (Full-length Human 4-1BB [2]),4-1BB Reporter Assay Max induction (Full-length Human 4-1BB [2]),OX40 Reporter Assay EC50 (Full-length Human OX40 [3]),OX40 Reporter Assay Max induction (Full-length Human OX40 [3]),EC50 (read off the curve) (Full-length Cyno 4-1BB),Kd (Human OX40 ECD-AFH),koff (Human OX40 ECD-AFH),kon (Human OX40 ECD-AFH),Kd (Human 4-1BB ECD-AFH),koff (Human 4-1BB ECD-AFH),kon (Human 4-1BB ECD-AFH),EC50 (Full-length Human OX40 [4]),max MFI (Full-length Human OX40 [4]),EC50 (Full-length Human 4-1BB [5]),max MFI (Full-length Human 4-1BB [5]),EC50 (read off the curve) (Full-length Cyno OX40)
"K322A Fc (other, IgG1 Fc with L234A, L235A, G237A, K322A (EU); the listing labels the entry 'K332A') EPKSSDKTHTCPPCPAPEAAGAPSVFLFPPKPKDTLMISRTPEVTCVVVDVSHEDPEVKFNWYVDGVEVHNAKTKPREEQYNSTYRVVSVLTVLHQDWLNGKEYKCAVSNKALPAPIEKTISKAKGQPREPQVYTLPPSRDELTKNQVSLTCLVKGFYPSDIAVEWESNGQPENNYKTTPPVLDSDGSFFLYSKLTVDKSRWQQGNVFSCSVMHEALHNHYTQKSLSLSPG",22 nM,,,,,,,,,,,,,,,,
"Null2 Fc (other, human, UniProt P01857-1 99-329, looked up, name in EU numbering, domain: Fc region) EPKSCDKTHTCPPCPAPEAAGAPSVFLFPPKPKDTLMISRTPEVTCVVVDVSHEDPEVKFNWYVDGVEVHNAKTKPREEQYNSTYRVVSVLTVLHQDWLNGKAYACAVSNKALPAPIEKTISKAKGQPREPQVYTLPPSRDELTKNQVSLTCLVKGFYPSDIAVEWESNGQPENNYKTTPPVLDSDGSFFLYSKLTVDKSRWQQGNVFSCSVMHEALHNHYTQKSLSLSPG",33 nM,,,,,,,,,,,,,,,,
"FXX01107 (bispecific antibody, ADAPTIR anti-4-1BB (LH) x anti-OX40 with T86R; also called FX01107) EIVMTQSPATLSLSPGERATLSCRASQSVSSYLNWYQQKPGQAPRLLIYYASRRHTGIPARFSGSGSGTDFTLTISSLQPEDFAVYYCQQGYNLPYTFGQGTKVEIKGGGGSGGGGSGGGGSGGGGSEVQLVQSGAEVKKPGASVKVSCKASGYTFTSYWMNWVRQAPGQGLEWMGNIYPSGGSTNYAQKFQGRVTMTVDTSTSTVYMELSSLRSEDTAVYYCASFSDGYYAYAMDYWGQGTLVTVEPKSSDKTHTCPPCPAPPAAAPSVFLFPPKPKDTLMISRTPEVTCVVVDVSHEDPEVKFNWYVDGVEVHNAKTKPREEQYNSTYRVVSVLTVLHQDWLNGKEYKCAVSNKALPAPIEKTISKAKGQPREPQVYTLPPSRDELTKNQVSLTCLVKGFYPSDIAVEWESNGQPENNYKTTPPVLDSDGSFFLYSKLTVDKSRWQQGNVFSCSVMHEALHNHYTQKSLSLSPGGGGSPSSYVLTQPPSVSVAPGQTARITCGGNNIGSKSVNWFQQKPGQAPVLVVYDDSGRPSGIPERFSGSTSGNTATLTISRVEAGDEADYYCQVWDSSSDHVVFGGGTKLTVLGGGGSGGGGSGGGGSGGGGSQVQLVESGGGVVQPGRSLRLSCAASGFTLSYYGMHWVRQAPGKGLEWVAAISHDGSDKYYADSVKGRFTISRDNSKNRLYLQMNSLRAEDTAVYYCSNDQFDPWGQGTLVTVSSR",,0.016 nM,6.85e+06,0.013 nM,2.14e+06,~0.3 nM,0.5 nM,0.00029 s⁻¹,630000 M⁻¹ s⁻¹,18 nM,0.0056 s⁻¹,310000 M⁻¹ s⁻¹,0.29 nM,10300 MFI,0.26 nM,4700 MFI,~0.8 nM
"FXX01108 (bispecific antibody, ADAPTIR anti-4-1BB (LH) x anti-OX40 with Q17K and T86R) EIVMTQSPATLSLSPGERATLSCRASQSVSSYLNWYQQKPGQAPRLLIYYASRRHTGIPARFSGSGSGTDFTLTISSLQPEDFAVYYCQQGYNLPYTFGQGTKVEIKGGGGSGGGGSGGGGSGGGGSEVQLVQSGAEVKKPGASVKVSCKASGYTFTSYWMNWVRQAPGQGLEWMGNIYPSGGSTNYAQKFQGRVTMTVDTSTSTVYMELSSLRSEDTAVYYCASFSDGYYAYAMDYWGQGTLVTVEPKSSDKTHTCPPCPAPPAAAPSVFLFPPKPKDTLMISRTPEVTCVVVDVSHEDPEVKFNWYVDGVEVHNAKTKPREEQYNSTYRVVSVLTVLHQDWLNGKEYKCAVSNKALPAPIEKTISKAKGQPREPQVYTLPPSRDELTKNQVSLTCLVKGFYPSDIAVEWESNGQPENNYKTTPPVLDSDGSFFLYSKLTVDKSRWQQGNVFSCSVMHEALHNHYTQKSLSLSPGGGGSPSSYVLTQPPSVSVAPGKTARITCGGNNIGSKSVNWFQQKPGQAPVLVVYDDSGRPSGIPERFSGSTSGNTATLTISRVEAGDEADYYCQVWDSSSDHVVFGGGTKLTVLGGGGSGGGGSGGGGSGGGGSQVQLVESGGGVVQPGRSLRLSCAASGFTLSYYGMHWVRQAPGKGLEWVAAISHDGSDKYYADSVKGRFTISRDNSKNRLYLQMNSLRAEDTAVYYCSNDQFDPWGQGTLVTVSSR",,0.013 nM,6.61e+06,0.013 nM,2.07e+06,~0.3 nM,0.8 nM,0.00039 s⁻¹,480000 M⁻¹ s⁻¹,18 nM,0.0055 s⁻¹,310000 M⁻¹ s⁻¹,0.32 nM,10300 MFI,0.29 nM,4770 MFI,~0.8 nM
